These results are taken from publication PMC6949242.

For series [1], the target named is FOXO1 DNA-binding domain (UniProt Q12778). The experiment in a line: NMR. The settings on record: FOXO1 alone, 50 mM Bis-Tris, 150 mM NaCl, pH 6.5, ITC at 25 °C, NMR 1H-15N HSQC with 100 uM FOXO1.
Series [2] has the same target. The experiment in a line: ITC. The settings on record: FOXO1 alone; 50 mM Bis-Tris, 150 mM NaCl, pH 6.5; ITC at 25 °C; NMR 1H-15N HSQC with 100 uM FOXO1.
Series [3] addresses FOXO1 DNA-binding domain;ETS1 DNA-binding domain (UniProt Q12778+P14921). The experiment in a line: ITC. The conditions noted are these: FOXO1 titrated into equimolar ETS1 + DNA; Kd of FOXO1; 50 mM Bis-Tris, 150 mM NaCl, pH 6.5; ITC at 25 °C; NMR 1H-15N HSQC with 100 uM FOXO1.
Series [4] addresses FOXO1 DNA-binding domain;ETS1 R409A R409A (UniProt Q12778+P14921). The experiment in a line: ITC. The settings on record: FOXO1 titrated into equimolar ETS1 R409A + DNA; Kd of FOXO1; 50 mM Bis-Tris, 150 mM NaCl, pH 6.5; ITC at 25 °C; NMR 1H-15N HSQC with 100 uM FOXO1.
Series [5] concerns the target FOXO1 DNA-binding domain;ETS1 R409H R409H (UniProt Q12778+P14921). Description: ITC. The settings on record: FOXO1 titrated into equimolar ETS1 R409H + DNA; Kd of FOXO1; 50 mM Bis-Tris, 150 mM NaCl, pH 6.5; ITC at 25 °C; NMR 1H-15N HSQC with 100 uM FOXO1.
Series [6] deals with FOXO1 DNA-binding domain;ETS1 Y410A Y410A (UniProt Q12778+P14921). Description: ITC. The settings on record: FOXO1 titrated into equimolar ETS1 Y410A + DNA; Kd of FOXO1; 50 mM Bis-Tris, 150 mM NaCl, pH 6.5; ITC at 25 °C; NMR 1H-15N HSQC with 100 uM FOXO1.

Take “TGACGCACCGGAAGTTAGG (double strand) [ω-high]”: the Kd with FOXO1 DNA-binding domain [1] (fit of residue G161 peak) was found to be 122000 nM; with FOXO1 DNA-binding domain [1] (mean of selected peaks, fast exchange), 167000 nM.

Take “CTGTAAACAGGAAGTGGAG (double strand) [ω-none]”: the results for the Kd (with FOXO1 DNA-binding domain [2]; in series [3]) were 24 nM and 26 nM, respectively.

As for AAAACAACAGGAAGTATTT (double strand) [ω], the Kd amounted to 352 nM with FOXO1 DNA-binding domain [2]; 44 nM in series [3]; 151 nM in series [4]; 67 nM in series [5]; 313 nM in series [6].
